Here are results for five molecules from US20020160975A1, “Conserved XIAP-interaction motif in caspase-9 and Smac/DIABLO for mediating apoptosis” (Thomas Jefferson University, priority 2001, published 2002).

Ends that are not written are not given here.

Series [1] deals with T1, Smac/DIABLO binding to BIR3 (Homo sapiens, UniProt P98170).
T1 construct: Smac-GST was immobilized onto glutathione resin and then incubated with BIR3
Nature of the series: In vitro binding of BIR3 to immobilized Smac-GST with or without competing peptide. The settings on record: 200 μM peptide; Smac-GST immobilized onto glutathione resin.

The target in series [2] is T2, XIAP (Homo sapiens, UniProt P98170).
T2 construct: made in house; host or cells: in vitro translation (cell-free)
T2 sequence (P98170 whole entry): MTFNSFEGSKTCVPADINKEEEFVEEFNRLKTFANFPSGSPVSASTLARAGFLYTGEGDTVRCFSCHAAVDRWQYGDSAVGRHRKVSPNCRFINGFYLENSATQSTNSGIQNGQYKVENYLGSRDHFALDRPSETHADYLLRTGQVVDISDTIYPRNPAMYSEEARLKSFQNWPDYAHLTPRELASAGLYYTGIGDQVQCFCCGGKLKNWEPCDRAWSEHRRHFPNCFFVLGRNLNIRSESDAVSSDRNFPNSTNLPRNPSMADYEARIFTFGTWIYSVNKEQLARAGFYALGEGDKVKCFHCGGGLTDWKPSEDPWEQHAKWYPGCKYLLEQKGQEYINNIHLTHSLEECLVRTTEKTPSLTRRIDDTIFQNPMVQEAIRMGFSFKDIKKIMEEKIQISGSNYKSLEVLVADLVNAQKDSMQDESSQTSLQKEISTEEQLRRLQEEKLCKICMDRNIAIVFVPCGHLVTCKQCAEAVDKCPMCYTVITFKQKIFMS
Nature of the series: Cytochrome c-dependent caspase-3 activation in 293T S100 extracts containing XIAP (DEVD-AMC). The format is biochemical. The note with it: 25, 100 and 500 μM peptide, XIAP 10 nM, cytochrome c and dATP. The procedure: The activity of caspase-3 in the S100 extracts was measured using the peptide substrate DEVD-AMC.

In another series the target is T3, full length XIAP (Homo sapiens, UniProt P98170).
T3 construct: full length XIAP or the isolated BIR3 domain of XIAP; made in house; host or cells: in vitro translation (cell-free)
T3 sequence (P98170 whole entry, the tested form may be a part): as the sequence (P98170 whole entry) above
Put plainly: In vitro interaction assay of GST fusion proteins with 35S-labeled XIAP. The format is binding. The settings on record: C-terminal GST fusion proteins immobilized onto glutathione-affinity resin. The text has this:
(§1) The C-terminal GST fusion proteins were expressed in bacteria and then immobilized onto glutathione-affinity resin. […] The caspase-9 deletion mutants used in these studies are represented by bar diagrams above the panel in FIG. 10.

For series [3], the target named is T4, isolated BIR3 domain of XIAP (Homo sapiens, UniProt P98170).
T4 construct: full length XIAP or the isolated BIR3 domain of XIAP; made in house; host or cells: in vitro translation (cell-free)
T4 sequence (P98170 238-358 limits assumed): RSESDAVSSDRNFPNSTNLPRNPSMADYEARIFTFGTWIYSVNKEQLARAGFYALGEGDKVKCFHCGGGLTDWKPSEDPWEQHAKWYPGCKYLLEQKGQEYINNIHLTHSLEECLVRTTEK
Nature of the series: In vitro interaction assay of GST fusion proteins with 35S-labeled BIR3. The format is binding. The note with it: C-terminal GST fusion proteins immobilized onto glutathione-affinity resin.
Excerpt: as §1

In series [4] the target is T5, caspase-9-p12 binding to BIR3 (Homo sapiens, UniProt P98170).
T5 construct: made in house; host or cells: bacteria (GST fusion)
T5 sequence (P98170 238-358 limits assumed): as above
Put plainly: In vitro binding of BIR3 to immobilized p12-GST with or without competing peptide. The note with it: 200 μM peptide; p12-GST immobilized onto glutathione resin. The procedure:
as §1
The interactions were analyzed as in Example 3.

Series [5] concerns the target T2, XIAP. Nature of the series: Far Western blot analysis with 35S-labeled XIAP. The format is binding.
Method: Recombinant WT caspase-9, E306/D315/D330A, D315/330A, or D315A caspase-9 mutants, p12, p10, or Smac/DIABLO GST-fusion proteins were fractionated by SDS-PAGE and then blotted onto a nitrocellulose membrane using standard Western blotting technique. The proteins on the nitrocellulose membrane were denatured in a buffer (10 mM sodium phosphate pH 7.4, 150 mM sodium chloride, 5 mM magnesium chloride and 1 mM DTT) containing 6 M guanidine-HCl. These proteins were then renatured by gradual reduction of guanidine-HCl to 0.3 M. The membrane was blocked overnight in the same buffer containing 5% non-fat dry milk. The membrane was then probed with ^35S-labeled in vitro translated XIAP in the same buffer with 1% non-fat dry milk. The membrane was washed at least three times and then exposed to X-ray film.
The next series deals with T6, XIAP-BIR3 (Homo sapiens, UniProt P98170).
T6 construct: purified XIAP-BIR3 (20 nM)
T6 sequence (P98170 238-358 limits assumed): as above
Put plainly: DEVD-AMC cleaving activity in caspase-9-depleted S100 extracts with or without XIAP-BIR3. The note with it: 10 nM caspase-9 protein; XIAP-BIR3 20 nM; DEVD-AMC 100 μM; 30 minutes. It is filed as biochemical. How it is done:
To test for enzymatic activity, caspase-9-depleted S100 extracts (20 μg) from Apaf-1-deficient mouse embryonic fibroblasts were incubated with recombinant Apaf-1, cytochrome c, dATP, and equal amounts (10 nM) of WT caspase-9 or the caspase-9 Δlinker mutant protein in the presence (+) or absence (−) of purified XIAP-BIR3 (20 nM). The reactions were carried out in the presence of the peptide substrate DEVD-AMC (100 μM) for 30 minutes, and substrate cleavage was measured by luminescence spectrometry.
To test for enzymatic activity, caspase-9-depleted S100 extracts (20 μg) from Apaf-1-deficient mouse embryonic fibroblasts were incubated with recombinant Apaf-1, cytochrome c, dATP, and equal amounts (10 nM) of WT caspase-9, caspase-9 AT316, 317SG, or AT316, 317GG mutant proteins in the presence (+) or absence (−) of purified XIAP-BIR3 (20 nM). The reactions were carried out in the presence of the peptide substrate DEVD-AMC (100 μM) for 30 minutes, and substrate cleavage was measured by luminescence spectrometry.

The target in series [6] is T7, X-linked inhibitor of apoptosis protein (XIAP), full length (UniProt P98170 1-497).
T7 construct: Used as in vitro translated 35S-labeled full length XIAP (pull-down, Far western) or as purified XIAP (holoenzyme experiments); also called full length XIAP; 35S-labeled XIAP
T7 sequence (P98170 whole entry): as the sequence (P98170 whole entry) above
Nature of the series: Far western with 35S-labeled XIAP.
Method: The proteins on the nitrocellulose membrane were denatured in a buffer (10 mM sodium phosphate pH 7.4, 150 mM sodium chloride, 5 mM magnesium chloride and 1 mM DTT) containing 6 M guanidine-HCl. These proteins were then renatured by gradual reduction of guanidine-HCl to 0.3 M. The membrane was blocked overnight in the same buffer containing 5% non-fat dry milk. […] The membrane was washed at least three times and then exposed to X-ray film.

The target of series [7] is T8, E314S mutant BIR3 domain of XIAP (UniProt P98170 238-358, limits assumed).
T8 construct: domain: BIR3; 35S-labeled, in vitro translated
Nature of the series: GST pull-down of 35S-labeled E314S BIR3.

Another series relates to procaspase-3 C163A. Nature of the series: Procaspase-3 processing and DEVD-AMC cleavage by caspase-9 reconstituted with Apaf-1. The format is biochemical. The settings on record: 20 nM each with purified Apaf-1; cytochrome c and dATP. How it is done:
Procaspase-3 processing assays were generally performed as described in Srinivasula, S. M. et al. J Biol Chem 275:36152-36157, 2000. In this assay, purified recombinant procaspase-3 C163A was incubated with equal amounts of recombinant WT or triple mutant caspase-9 protein (20 nM) in the presence (+) or absence (−) of recombinant Apaf-1 (20 nM). The reaction mixtures were stimulated with cytochrome c (50 ng/μl) and dATP (1 mM), incubated for 0-60 minutes at 30° C., and then analyzed by SDS-PAGE and western blot analysis (FIG. 3).
Caspase-3 enzymatic assays with the tetrapeptide substrate DEVD-AMC were generally performed as described in Srinivasula, S. M. et al. J Biol Chem 275:36152-36157, 2000. In this caspase-3 enzymatic assay, caspase-9-depleted S100 extracts from Apaf-1-deficient mouse embryonic fibroblasts were incubated with equal amounts of recombinant WT and triple mutant caspase-9 proteins together with Apaf-1, cytochrome c and dATP. The controls used in these assays represent WT and triple mutant caspase-9 proteins incubated as above without cytochrome c and dATP. The reactions were carried out in the presence of 100 μM of DEVD-AMC for 0-120 minutes, and substrate cleavage was measured by luminescence spectrometry using a Perkin Elmer Luminescence spectrometer and represented in arbitrary spectrometric units.

In series [8] the target is T7, X-linked inhibitor of apoptosis protein …. Put plainly: gel filtration on Superose 6 and immunoblot of fractions. A general note: In gel filtration, larger molecules generally elute earlier.
Method: After incubation, the reaction mixtures were diluted with oligomerization buffer I, and aliquots of each sample (100 μl) were loaded onto a Superose 6 FPLC column.
Samples were then analyzed by SDS-PAGE and autoradiography.

T1 sequence (P98170 238-358 limits assumed): as the sequence (P98170 238-358 limits assumed) above

Regarding ATPFQEGLRTFDQLD [linker peptide], the “inhibition of Smac/DIABLO binding to BIR3” value in series [1] is “completely inhibited”. Moreover, at XIAP [2], the “promoting caspase-3 activation in XIAP containing extracts” value is recorded as “as effective in promoting caspase-3 activation as the Smac-N5 or N7 peptides”. In addition, the “interaction with full length XIAP” value on full length XIAP is reported as “able to interact”. Besides, the “interaction with isolated BIR3 domain of XIAP” value in [3] was “able to interact”.
On to AVPIAQK [Smac-N7, AVPIAQK], for which the “inhibition of binding of caspase-9-p12 to BIR3” value in [4] is listed as “completely inhibited”.

B1: Δlinker: caspase-9 with residues 316 to 330 of SEQ ID NO:1 deleted (protein, listed as Homo sapiens)
chain: MDEADRRLLRRCRLRLVEELQVDQLWDALLSRELFRPHMIEDIQRAGSGSRRDQARQLIIDLETRGSQALPLFISCLEDTGQDMLASFLRTNRQAAKLSKPTLENLTPVVLRPEIRKPEVLRPETPRPVDIGSGGFGDVGALESLRGNADLAYILSMEPCGHCLIINNVNFCRESGLRTRTGSNIDCEKLRRRFSSLHFMVEVKGDLTAKKMVLALLELAQQDHGALDCCVVVILSHGCQASHLQFPGAVYGTDGCPVSVEKIVNIFNGTSCPSLGGKPKLFFIQACGGEQKDHGFEVASTSPEDESPGSNPEPDAISSLPTPSDIFVSYSTFPGFVSWRDPKSGSWYVETLDDIFEQWAHSEDLQSLLLRVANAVSVKGIYKQMPGCFNFLRKKLFFKTS
For the molecule B1, the “ability to interact with BIR3 (Far western, FIG. 12B)” value with XIAP [5] (recombinant caspase-9 mutants) is listed as “lost significantly the ability to interact”. Besides, the “enzymatic activity (DEVD-AMC cleaving) in presence of XIAP-BIR3” value in the series with XIAP-BIR3 is listed as “did not inhibit enzymatic activity, even in the presence of XIAP-BIR3”.

B2: Caspase-9-p12 C-terminal GST fusion protein (residues 316-416 of SEQ ID NO:1) (other, not shown: a dimerising Fc or GST)
chain: ATPFQEGLRTFDQLDAISSLPTPSDIFVSYSTFPGFVSWRDPKSGSWYVETLDDIFEQWAHSEDLQSLLLRVANAVSVKGIYKQMPGCFNFLRKKLFFKTS
notes: also called p12-GST; GST-p12
As to B2, the binding result is recorded as “binds” in series [6] and “no binding” in series [7].

B3: triple mutant procaspase-9 (E306/D315/D330A) (enzyme)
chain: MDEADRRLLRRCRLRLVEELQVDQLWDALLSRELFRPHMIEDIQRAGSGSRRDQARQLIIDLETRGSQALPLFISCLEDTGQDMLASFLRTNRQAAKLSKPTLENLTPVVLRPEIRKPEVLRPETPRPVDIGSGGFGDVGALESLRGNADLAYILSMEPCGHCLIINNVNFCRESGLRTRTGSNIDCEKLRRRFSSLHFMVEVKGDLTAKKMVLALLELAQQDHGALDCCVVVILSHGCQASHLQFPGAVYGTDGCPVSVEKIVNIFNGTSCPSLGGKPKLFFIQACGGEQKDHGFEVASTSPEDASPGSNPEPAATPFQEGLRTFDQLAAISSLPTPSDIFVSYSTFPGFVSWRDPKSGSWYVETLDDIFEQWAHSEDLQSLLLRVANAVSVKGIYKQMPGCFNFLRKKLFFKTS
notes: Unprocessed protein; also called uncleavable caspase-9; mutant caspase-9
Turning to B3, the “binding of XIAP by Far Western” value with XIAP [5] (proteins on nitrocellulose membrane, denatured and renatured) was “not able to bind”. Also, the “processing procaspase-3 C163A or inducing DEVD-AMC cleavage” value with procaspase-3 C163A is given as “as efficient as the fully processed WT caspase-9”. The binding result in series [8] is “no binding”.
